According to article PMC12207370 (2025):
Bridge positions count the residues as written; N and C are the ends. Square brackets hold non-standard residues; d marks the D form. Ends that are not written are not given here.

B1: CD59 (immobilized for SPR) (receptor)
chain: LQCYNCPNPTADCKTAVNCSSDFDACLITKAGLQVYNKCWKFEHCNFNDVTTRLRENELTYYCCKKDLCNFNEQLEN

How the values were obtained:
Assay in all cases: SPR
[1] = target: rILYd4 (Streptococcus intermedius, UniProt Q9LCB8 1-532)
[2] = target: CP-03
[3] = target: CP-02
[4] = target: CP-04
[5] = target: CP-13 (N-terminal Ac-D-Tyr cyclized to a C-terminal Cys (thioether macrocycle))
[6] = target: B1
[7] = target: B1

Row | Binder | Kd [1] [nM] | Kd [2] [nM] | Kd [3] [nM] | Kd [4] [nM] | Kd [5] [nM] | koff [6] [s⁻¹] | Kd [7] [nM]
1 | B1 | 48.3 | 23.4 | 15.3 | 11.9 | 10.8 | – | –
2 | {CH2CO}-[dY]SWTWGNRSSVRGC (thioether N-14) [CP-06] | – | – | – | – | – | 0.0204 | 11.3
